Assay results as given in paper PMC5374589.

Molecular target: Murine PD-L1 (murine) (UniProt Q9EP73)
UniProt Q9EP73, sequence (Q9EP73 19-290): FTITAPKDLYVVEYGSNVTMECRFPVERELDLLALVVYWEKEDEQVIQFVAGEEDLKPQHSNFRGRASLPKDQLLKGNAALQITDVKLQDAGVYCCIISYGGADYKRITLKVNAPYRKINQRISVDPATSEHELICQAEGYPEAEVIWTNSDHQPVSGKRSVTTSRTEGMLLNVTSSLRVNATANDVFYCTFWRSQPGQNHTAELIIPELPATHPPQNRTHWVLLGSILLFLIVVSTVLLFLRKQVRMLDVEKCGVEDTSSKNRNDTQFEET

- T cell-induced lysis of EG7-PD-L1 target cells in co-culture with PD-1-CD28 fusion receptor transduced OVA-specific CD8+ T cells: 3 fold
Substance: PD-1-CD28 fusion receptor
